The target in assay [1] is HLA-B*07:02. The assay can be described thus: IEDB peptide-MHC binding, purified MHC/competitive/radioactivity; ≥ and ≤ were set here for values at or beyond the usual limits of such assays. As to conditions: source organism: dengue virus type 1.
Assay [2] addresses HLA-B*35:01. The assay can be described thus: IEDB peptide-MHC binding, purified MHC/competitive/radioactivity; filed as Kd, often an IC50 or EC50 that approximates it; ≥ and ≤ were set here for values at or beyond the usual limits of such assays. As to conditions: source organism: Dengue virus 1 Brazil/97-11/1997.
The target in the next assay is HLA-A*26:02. Nature of the assay: IEDB peptide-MHC binding, purified MHC/direct/fluorescence; filed as Kd, often an IC50 or EC50 that approximates it; ≥ and ≤ were set here for values at or beyond the usual limits of such assays. As to conditions: source organism: Variola virus.
Another assay deals with HLA-B*08:02. The description is as above.
Another assay has as its target HLA-B*58:01. Described as above.
Assay [3] addresses HLA-B*46:01. The assay is described as above.
The target of the next assay is HLA-A*68:02. Described as above. As to conditions: source organism: Cowpox virus.
The target of the next assay is HLA-A*02:01. Described as above.
The next assay addresses HLA-B*40:01. Described as above.
The target of assay [4] is HLA-B*15:09. The description is as above. As to conditions: source organism: Variola virus.
The target of assay [5] is HLA-A*26:01. The description is as above. As to conditions: source organism: Variola virus.
In assay [6] the target is HLA-B*57:01. Described as above.
The target of assay [7] is HLA-B*39:01. The description is as above.
The target of a further assay is HLA-A*01:01. Described as above.
A further assay concerns the target HLA-A*69:01. The assay is described as above. As to conditions: source organism: Cowpox virus.
A further assay addresses HLA-B*08:01. The assay is described as above. To be noted: source organism: Variola virus.
The target of assay [8] is HLA-B*27:05. The assay can be described thus: IEDB peptide-MHC binding, purified MHC/competitive/fluorescence; filed as Kd, often an IC50 or EC50 that approximates it; ≥ and ≤ were set here for values at or beyond the usual limits of such assays. As to conditions: source organism: Vaccinia virus Copenhagen.
Assay [9] deals with HLA-B*15:17. Described as above.
Assay [10] concerns the target HLA-B*35:01. Described as above. To be noted: source organism: Vaccinia virus Copenhagen.
In a further assay the target is HLA-B*18:01. The assay is described as above.
A further assay has as its target HLA-B*15:01. The assay is described as above.
Assay [11] addresses HLA-B*07:02. Described as above. As to conditions: source organism: Vaccinia virus Copenhagen.
For a further assay, the target named is HLA-C*05:01. The assay can be described thus: IEDB peptide-MHC binding, purified MHC/direct/fluorescence; filed as Kd, often an IC50 or EC50 that approximates it; ≥ and ≤ were set here for values at or beyond the usual limits of such assays. As to conditions: source organism: Bacillus anthracis str. A0389.
Assay [12] has as its target HLA-B*27:05. The description is as above. As to conditions: source organism: Bacillus anthracis.
A further assay concerns the target HLA-A*31:01. The description is as above. As to conditions: source organism: Bacillus anthracis.
For another assay, the target named is HLA-A*03:01. Described as above. To be noted: source organism: Bacillus anthracis.
Assay [13] addresses HLA-B*15:17. The description is as above. To be noted: source organism: Bacillus anthracis.
The target in a further assay is HLA-A*11:01. Described as above. As to conditions: source organism: Bacillus anthracis.
The next assay has as its target HLA-B*48:01. The description is as above. As to conditions: source organism: Bacillus anthracis.
For assay [14], the target named is HLA-B*15:09. The assay can be described thus: IEDB peptide-MHC binding, purified MHC/competitive/fluorescence; filed as Kd, often an IC50 or EC50 that approximates it; ≥ and ≤ were set here for values at or beyond the usual limits of such assays. To be noted: source organism: Bacillus anthracis str. A0389.
The target in assay [15] is HLA-A*26:01. Described as above.
The target of another assay is HLA-A*02:06. The description is as above. As to conditions: source organism: Bacillus anthracis str. A0389.
A further assay deals with HLA-B*40:02. The assay can be described thus: IEDB peptide-MHC binding, cellular MHC/competitive/fluorescence; ≥ and ≤ were set here for values at or beyond the usual limits of such assays. To be noted: source organism: Homo sapiens.
A further assay addresses HLA-A*24:03. Nature of the assay: IEDB peptide-MHC binding, purified MHC/direct/fluorescence; filed as Kd, often an IC50 or EC50 that approximates it; ≥ and ≤ were set here for values at or beyond the usual limits of such assays. As to conditions: source organism: Zaire ebolavirus.
A further assay deals with HLA-B*83:01. Nature of the assay: IEDB peptide-MHC binding, purified MHC/competitive/fluorescence; filed as Kd, often an IC50 or EC50 that approximates it; ≥ and ≤ were set here for values at or beyond the usual limits of such assays. As to conditions: source organism: Zaire ebolavirus.
For assay [16], the target named is HLA-B*46:01. The assay is described as above. As to conditions: source organism: Zaire ebolavirus.
A further assay addresses HLA-C*06:02. The description is as above. To be noted: source organism: Zaire ebolavirus.
The next assay deals with HLA-A*03:19. Described as above. As to conditions: source organism: Zaire ebolavirus.
The target in the next assay is HLA-B*27:03. The assay is described as above. To be noted: source organism: Zaire ebolavirus.
The target in assay [17] is HLA-B*57:01. Described as above. To be noted: source organism: Zaire ebolavirus.
In assay [18] the target is HLA-B*39:01. The description is as above. To be noted: source organism: Zaire ebolavirus.
In a further assay the target is HLA-B*15:42. The description is as above. To be noted: source organism: Zaire ebolavirus.
Another assay deals with HLA-B*45:06. Described as above. To be noted: source organism: Zaire ebolavirus.
Where [19] appears, read: source organism: Vaccinia virus Copenhagen.
Where [20] appears, read: source organism: Bacillus anthracis str. A0193.
The mark [21] stands for this setting: source organism: Bacillus anthracis.
[22] abbreviates: source organism: Bacillus anthracis str. A0389.
The mark [23] stands for this setting: source organism: Zaire ebolavirus.

pIC50, pKd: −log10 of the molar value.

One may read the pIC50 as −log10 of the IC50, conventionally taken in molar units. The term pKd denotes the negative decadic logarithm of the Kd, by convention in mol/L. As to HPASAWTLYA, in the assay with HLA-B*07:02 [1], the negative logarithm of the IC50 (pIC50) was 8.21. The pKd in the assay with HLA-B*35:01 [2] is 6.24.
As to YHRFGLYRL, the pKd with HLA-A*26:02, with HLA-B*08:02 (source organism: Variola virus), with HLA-B*58:01 (source organism: Cowpox virus), in the assay with HLA-B*46:01 [3] (source organism: Cowpox virus), with HLA-A*68:02 and in the assay with HLA-A*02:01 (source organism: Cowpox virus) was at most 4.70 each time. Moreover, the pKd with HLA-B*40:01 (source organism: Cowpox virus) is at most 4.70; in the assay with HLA-B*15:09 [4], 5.62; with HLA-A*26:01 [5] it was at most 4.70; in the assay with HLA-B*57:01 [6] (source organism: Cowpox virus), at most 4.70; with HLA-B*39:01 [7] (source organism: Cowpox virus), 5.30; in the assay with HLA-A*01:01 (source organism: Cowpox virus), at most 4.70. Moreover, the pKd in the assay with HLA-A*69:01 is at most 4.70; in the assay with HLA-B*08:01 it was at most 4.70; with HLA-B*27:05 [8], at most 4.70; with HLA-B*15:17 [9] (setting [19]) it was at most 4.70; with HLA-B*35:01 [10], 5.57; with HLA-B*18:01 (setting [19]), 5.58. Besides, the pKd in the assay with HLA-B*15:01 (setting [19]) and in the assay with HLA-B*07:02 [11] was at most 4.70 each time.
FTDNNELEF: the pKd with HLA-B*08:02 (setting [20]) is at most 4.70; with HLA-B*58:01 (setting [21]), 6.67; in the assay with HLA-B*46:01 [3] (setting [21]), at most 4.70; in the assay with HLA-C*05:01, at least 9.00; in the assay with HLA-B*27:05 [12], at most 4.70; with HLA-B*40:01 (setting [21]) it was at most 4.70. Further, the pKd is at most 4.70 with HLA-A*31:01; at most 4.70 with HLA-A*03:01; 8.52 with HLA-B*15:17 [13]; at most 4.70 with HLA-B*57:01 [6] (setting [21]); at most 4.70 with HLA-B*39:01 [7] (setting [20]); 8.70 with HLA-A*01:01 (setting [21]). The pKd in the assay with HLA-A*11:01 was at most 4.70; in the assay with HLA-B*48:01 it was at most 4.70; in the assay with HLA-B*15:09 [14], at most 4.70; with HLA-A*26:01 [15] (setting [22]) it was at most 4.70; with HLA-A*02:06 it was 9.70; with HLA-B*15:01 (setting [22]) it was at most 4.70.
In the case of REGSFRVTT, in the assay with HLA-B*40:02, the pIC50 is 5.72.
In the case of VLYHRYNLV, the pKd was 7.74 with HLA-A*02:01 (source organism: Sudan ebolavirus - Maleo (1979)); at most 4.70 in the assay with HLA-A*24:03; at most 5.30 in the assay with HLA-B*83:01; at most 4.70 with HLA-B*46:01 [16]; 6.09 with HLA-C*06:02; 8.36 with HLA-A*03:19. In addition, the negative-log Kd (pKd) with HLA-B*27:03, with HLA-B*15:17 [9] (setting [23]), with HLA-A*26:01 [15] (setting [23]), with HLA-B*57:01 [17], with HLA-B*39:01 [18] and with HLA-B*18:01 (setting [23]) was at most 4.70 throughout. Also, the values for the pKd with HLA-B*15:01 (setting [23]), in the assay with HLA-B*15:42 and in the assay with HLA-B*45:06 were at most 4.70, at most 5.30 and at most 5.30, respectively.
